Results reported in patent US20060115428A1 (MorphoSys, published 2006).
Positions count from the first letter of the chain named. Like-named read-outs stand apart in the source and are kept apart here.

B1: MOR03245 (Fab, V domains shown)
VH: QVQLQESGPGLVKPGETLSLTCTVSGGSISSYYWSWIRQAPGKGLEWIGVIHKWGFTNYNPSLKSRVTISVDTSKNQFSLKLSSVTAADTAVYYCARFFDVWGQGTLVTVSS
VL: DIVLTQPPSVSGAPGQRVTISCSGSSSNIGSNTVRWYQQLPGTAPKLLIYSNNKRPSGVPDRFSGSKSGTSASLAITGLQSEDEADYYCWTGMSYHFVFGGGTKLTVLG
notes: Fab, H-CDR2 derivative of MOR03069
B2: MOR03062 (Fab, V domains shown)
VH: QVQLVESGGGLVQPGGSLRLSCAASGFTFSSYGMHWVRQAPGKGLEWVSVISSSGSYIYYADSVKGRFTISRDNSKNTLYLQMNSLRAEDTAVYYCARNKVGFDVWGQGTLVTVSS
VL: DIALTQPASVSGSPGQSITISCTGTSSDGGGYNTVSWYQQHPGKAPKLMIYYVHKRPSGVSNRFSGSKSGNTASLTISGLQAEDEADYYCQSWDLSVHQVVFGGGTKLTVLG
notes: Fab, L-CDR3 derivative of MOR02715
B3: MOR03255 (Fab, V domains shown)
VH: B2 VH with S53N, S54R, G55S
VL: B2 VL
notes: Fab, H-CDR2 derivative of MOR03062
B4: MOR03257 (Fab, V domains shown)
VH: B2 VH with S53N, S54R, S56N
VL: B2 VL
notes: as for B3
B5: MOR03251 (Fab, V domains shown)
VH: B2 VH with S53N, S54M, G55S, S56Y, Y57T
VL: B2 VL
notes: as for B3
B6: MOR03253 (Fab, V domains shown)
VH: B2 VH with S53N, S54M, S56F, Y57E
VL: B2 VL
notes: Fab, H-CDR2 derivative
B7: MOR03252 (Fab, V domains shown)
VH: B2 VH with S53N, S54Y, G55S, S56W, Y57H
VL: B2 VL
notes: as for B3
B8: MOR02715 (Fab, V domains shown)
VH: B2 VH
VL: B2 VL with S92A, L95N, S96Q, V97G, H98M, Q99K, V100Y
notes: HuCAL GOLD Fab, VH3/L2
B9: MOR03064 (Fab, V domains shown)
VH: B2 VH
VL: B2 VL with S96L, V97A, H98P, Q99S
notes: as for B2

Columns and labels:
[1] = target: recombinant fibronectin domain ED-B (His)6 (human) (UniProt P02751); assay: SPR (BIAcore), ED-B immobilised on chip
[2] = target: recombinant fibronectin domain ED-B (His)6 (human) (UniProt P02751); assay: SPR (BIAcore), ED-B immobilised on chip; remark: listed apart in the source
[3] = target: recombinant fibronectin domain ED-B (His)6 (human) (UniProt P02751); assay: SPR (BIAcore), ED-B immobilised on chip; remark: listed apart in the source
[4] = target: T1, recombinant fibronectin domain 7-8-9 (without ED-B) (UniProt P02751-1 1173-1446, limits assumed); assay: specificity ELISA on immobilised recombinant domain 7-8-9
T1 construct: domain: fibronectin domains 7-8-9 (without ED-B)

[5] = target: T2, recombinant fibronectin domain ED-B (His)6 (human, UniProt P02751 1266-1356); assay: SPR (BIAcore), ED-B immobilised on chip (about 100 RU), Fab in flow
T2 construct: domain: ED-B; Produced by standard procedures; immobilised on ELISA plates or on the BIAcore chip; also called recombinant ED-B; human ED-B
Description: (§1) F1-Chips (Biacore, Sweden) were coated with about 200 RU of ED-B (30 μg/ml, 10 mmol of acetate buffer, pH 4.0) and reference flow cells with a corresponding amount of human serum albumin (20 μg/ml, 10 mmol of acetate buffer, pH 4.5) with use of standard EDC-NHS-amine-coupling chemistry. The antigen density was reduced to about 100 RU for the Fab characterization of the second maturation. The regeneration was carried out with 10 mmol of HCl. All kinetic measurements were carried out in PBS buffer (136 mmol of NaCl, 2.7 mmol of KCl, 10 mmol of Na₂HPO₄, 1.76 mmol of KH₂PO₄, pH 7.4) with a flow rate of 20 μl/minute with use of a Fab concentration range of 1.5-500 nmol. The injection period was 1 minute in each case. All sensograms were evaluated with use of BIA evaluation software 3.1.

[6] = target: T3, recombinant fibronectin domain 6 (UniProt P02751 1086-1172, limits assumed); assay: specificity ELISA on immobilised recombinant fibronectin domain 6
T3 construct: domain: fibronectin domain 6; also called 6FN; 6-FN

[7] = target: T2, recombinant fibronectin domain ED-B …; assay: SPR (BIAcore); ratio to parent clone MOR02715
Description: as §1

[8] = target: T2, recombinant fibronectin domain ED-B …; assay: SPR (BIAcore), ED-B immobilised on chip, Fab in flow
Description: as §1

[9] = target: T2, recombinant fibronectin domain ED-B …; assay: as above; remark: listed apart in the source
Description: as §1
The properties of twelve selected binding molecules was determined by BIAcore analysis (see Table 1). […] At least two independent measurements with Fab molecules from different batches were performed for protein expression and protein purification. The binding rate (Kₒₙ) and the dissociating-off rate (Koff) of the Fab molecule are indicated in separate columns.

[10] = target: T1, recombinant fibronectin domain 7-8-9 …; assay: specificity ELISA on immobilised recombinant domain 7-8-9; remark: listed apart in the source
[11] = target: T3, recombinant fibronectin domain 6; assay: specificity ELISA on immobilised recombinant fibronectin domain 6; remark: listed apart in the source

Row | Molecule | binding result [4] | Kd [5] [nM] | koff [5] [s⁻¹] | kon [5] [M⁻¹ s⁻¹] | binding result [6] | Kd [8] [nM] | koff [8] [s⁻¹] | kon [8] [M⁻¹ s⁻¹] | also measured
1 | AP39, covalent dimer of the anti-ED-B scFv antibody L19 | – | – | – | – | – | – | – | – | koff [1]: 0.0015 s⁻¹; Kd [2]: 2.4 nM; koff [2]: 0.00149 s⁻¹; kon [2]: 660000 M⁻¹ s⁻¹; kon [3]: 675000 M⁻¹ s⁻¹
2 | B1 | no binding | 0.7 | 0.0016 | 3.5e+06 | no binding | – | – | – | –
3 | B2 | – | – | – | – | – | 3.4 | 0.011 | 3.5e+06 | x-Fold Improvement Relative to the Parent Clone, KD [7]: 15.8 fold; x-Fold Improvement Relative to the Parent Clone, Koff [7]: 4.2 fold; x-Fold Improvement Relative to the Parent Clone, Kon [7]: 4 fold
4 | B3 | no binding | 0.03 | 8.6e-05 | 4.9e+06 | no binding | – | – | – | –
5 | B4 | no binding | 0.08 | 0.0003 | 5.3e+06 | no binding | – | – | – | –
6 | B5 | no binding | 0.07 | 0.0002 | 3.3e+06 | no binding | – | – | – | –
7 | B6 | no binding | 0.13 | 0.0002 | 1.6e+06 | no binding | – | – | – | –
8 | B7 | no binding | 0.03 | 6.1e-05 | 3.1e+06 | no binding | – | – | – | –
9 | B8 | – | – | – | – | – | 53.7 | 0.047 | 990000 | Kd [9]: 53.7 nM; koff [9]: 0.047 s⁻¹; kon [9]: 890000 M⁻¹ s⁻¹; binding result [10]: no binding; binding result [11]: no binding
10 | B9 | – | – | – | – | – | 10 | 0.014 | 1.5e+06 | x-Fold Improvement Relative to the Parent Clone, KD [7]: 5.3 fold; x-Fold Improvement Relative to the Parent Clone, Koff [7]: 3.5 fold; x-Fold Improvement Relative to the Parent Clone, Kon [7]: 1.7 fold
